The values below come from article PMC6868513.

One assay has as its target soluble Vγ4Vδ1 TCR. As to the kind of experiment: flow cytometry on cells. To be noted: anti-His mAb, read off a plot. Background: A flow cytometer gives signals particle by particle.
In assay [1] the target is BTNL3 IgV domain (wild type) (UniProt Q6UXE8). As to the kind of experiment: SPR. To be noted: parent: est. 1; read off a plot.
The target in assay [2] is Soluble endothelial protein C receptor (EPCR) (UniProt Q9UNN8). Nature of the assay: SPR. To be noted: parent: est. 1; read off a plot.
Assay [3] addresses BTNL3.8 heterodimer on 293T cells (human) (UniProt Q6UXE8).
Assay [4] deals with LES Vγ4Vδ5 TCR, soluble, wild type (human). Nature of the assay: SPR; BIAcore3000; biotinylated wt or mutant LES TCR (1000-3500 RU) captured on streptavidin-coated CM5 chip; analyte (BTNL3 or BTNL8 IgV, EPCR) 1-200 μM; HBS-EP; 25°C; equilibrium analysis. (Surface plasmon resonance follows binding to a sensor surface in real time, without labels.)
The target is the same in assay [5]. As to the kind of experiment: ITC; iTC200; 20°C; 20mM Tris pH 8, 50 mM NaCl; TCR in the cell at 70 μM, BTNL3 at ten-fold higher concentration titrated as 20 × 2 μl injections; single independent binding site model. (In ITC the heat of successive injections is recorded.)
The target is the same in assay [6]. As to the kind of experiment: SPR; BIAcore3000; biotinylated wt or mutant LES TCR (1000-3500 RU) captured on streptavidin-coated CM5 chip; analyte (BTNL3 or BTNL8 IgV, EPCR) 1-200 μM; HBS-EP; 25°C; equilibrium analysis. The source holds these as a separate data set.
For assay [7] the target is unchanged. Nature of the assay: SPR; competition: wt EPCR (2500-3000 RU) immobilised on the chip; LES TCR injected at 12.5 μM with increasing BTNL3 IgV (3.5-113 μM) or BTNL8 IgV (2.2-70.5 μM); response as percent of that without competitor.
The mark [8] stands for this setting: soluble Vγ4Vδ1 0.1 µg/ml (read from x axis), parent: est. 9.0.
[9] abbreviates: soluble Vγ4Vδ1 10 µg/ml (read from x axis), parent: est. 31.
[10] abbreviates: soluble Vγ4Vδ1 about 2 µg/ml (read from x axis), parent: est. 16.

Values joined by “and” are separate entries in the source; they are usually repeats but may differ in a detail not shown here. Equal values may be shown once.

Chain of UniProt Q9UNN8 (Q9UNN8 whole entry, looked up, tested part not stated): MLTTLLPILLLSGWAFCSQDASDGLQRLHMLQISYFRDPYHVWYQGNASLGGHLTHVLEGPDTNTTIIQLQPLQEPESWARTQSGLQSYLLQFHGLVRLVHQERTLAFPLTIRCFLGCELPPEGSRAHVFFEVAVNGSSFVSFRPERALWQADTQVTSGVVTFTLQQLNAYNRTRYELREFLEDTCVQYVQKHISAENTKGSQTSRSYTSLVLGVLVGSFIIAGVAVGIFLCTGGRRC
Chain of UniProt Q6UXE8 (Q6UXE8 whole entry, looked up, the tested form may be a part): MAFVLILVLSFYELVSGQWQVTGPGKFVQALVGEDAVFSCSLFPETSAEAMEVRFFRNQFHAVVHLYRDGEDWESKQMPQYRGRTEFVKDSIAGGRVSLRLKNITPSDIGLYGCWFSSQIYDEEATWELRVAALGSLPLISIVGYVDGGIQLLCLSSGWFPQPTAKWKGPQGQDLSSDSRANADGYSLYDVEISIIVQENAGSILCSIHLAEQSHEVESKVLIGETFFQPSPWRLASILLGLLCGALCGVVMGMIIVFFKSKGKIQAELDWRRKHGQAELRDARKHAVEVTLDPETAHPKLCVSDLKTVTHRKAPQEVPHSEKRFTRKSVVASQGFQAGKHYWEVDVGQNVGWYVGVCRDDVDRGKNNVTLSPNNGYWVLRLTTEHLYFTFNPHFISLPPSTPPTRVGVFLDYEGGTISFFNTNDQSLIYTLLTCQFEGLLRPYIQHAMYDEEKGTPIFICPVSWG

Turning to “BTNL3.8 heterodimer on 293T cells (from UniProt Q6UXE8;Q6UX41) EDWESK>KDQPFM (in BTNL3)”, the figures for the response (gMFI fold relative to ctrl) with soluble Vγ4Vδ1 TCR (setting [8]), with soluble Vγ4Vδ1 TCR (setting [9]) and with soluble Vγ4Vδ1 TCR (setting [10]) were 4.1, 7.7 and 5, respectively.
On the same counts, the results for “BTNL3.8 heterodimer on 293T cells (from UniProt Q6UXE8;Q6UX41) NQFHA>GQFSS (in BTNL3)” are 1.2, 1.2 and 1.4.
As to “LES Vγ4Vδ5 TCR, soluble, wild type γ:DSYT>KYSR (CDR2)”, the values for the ratio to parent in assay [1] and in assay [2] were 0.066 and 1.8, respectively.
In the same order, the values of “LES Vγ4Vδ5 TCR, soluble, wild type γ:EGST>AWRY (CDR1)” are 1.3 and 6.6.
Regarding “LES Vγ4Vδ5 TCR, soluble, wild type γ:…>ATWEG--YKKLF (CDR3, as aligned)”, in assay [1], the ratio to parent is 0.72.
Regarding “LES Vγ4Vδ5 TCR, soluble, wild type γ:…>… (HV4; D>Y; G>A)”, the ratio to parent in assay [2] is 0.53.
Consider “LES Vγ4Vδ5 TCR, soluble, wild type γ:…>… (HV4; K>N; M>L)”, for which the ratio to parent in assay [1] worked out at 0.38; in assay [2], 1.4.
In the same order, the values of “LES Vγ4Vδ5 TCR, soluble, wild type δ:NSMF>YRKS (CDR1)” are 0.6 and 0.25.
For “LES Vγ4Vδ5 TCR, soluble, wild type δ:RGYTG>EGSKW (CDR3)”, the ratio to parent in assay [1] worked out at 0.3.
Regarding “LES Vγ4Vδ5 TCR, soluble, wild type δ:SSIK>RYRE (CDR2)”, the results for the ratio to parent in assay [1] and in assay [2] were 0.88 and 1, respectively.
Molecule “mo5 Vγ7Vδ2-2 TCR with the CDR2 and HV4 loops of human Vγ4, on Jurkat 76 cells” came in with a CD69 expression on transduced J76 cells in response to BTNL3.8-expressing target cells, over control (flow cytometry) in assay [3] of more than 3 fold. In assay [3] (scale: % of the TCR downmodulation of WT Vγ4 TCR transductants), this molecule registered a TCR downmodulation on transduced J76 cells after co-culture with 293T.L3L8 cells, against WT Vγ4 TCR transductants (flow cytometry) of 90.
In turn, “mo5 Vγ7Vδ2-2 TCR with the HV4 loop of human Vγ4, on Jurkat 76 cells” had a CD69 expression on transduced J76 cells in response to BTNL3.8-expressing target cells, over control (flow cytometry) in assay [3] of more than 3 fold.

B1: BTNL3 IgV domain (wild type) (domain or fragment)
chain: QWQVTGPGKFVQALVGEDAVFSCSLFPETSAEAMEVRFFRNQFHAVVHLYRDGEDWESKQMPQYRGRTEFVKDSIAGGRVSLRLKNITPSDIGLYGCWFSSQIYDEEATWELRV
B1: the Kd in assay [4] was 15 to 25 µM and 20.7 µM; in assay [5], 3.5 µM; in assay [6], 22.1 µM and 20.9 µM. This molecule also had a dH in assay [5] of -8.1 kcal/mol. For the same molecule, the percent of LES TCR binding to EPCR left with the competitor in assay [7] is less than 40%.

Broadly, the Kd is the concentration at which binding is half-saturated.
